Assay results taken from patent US20210087281A1 (AGOMAB THERAPEUTICS, published 2021).

Legend:
human MET ECD [1] = target: T1, human MET ECD (human, UniProt P08581 25-932); assay: SPR, MET ECD on chip, crude periplasmic Fab
T1 construct: range 1-932; recombinant ECD made by the applicants; the stated range begins at residue 1, so it includes the signal peptide of the entry; also called hMET; hMET ECD
Experimental: (§1) Fab-expressing phages from the libraries described above were produced according to standard phage display protocols. For selection, phages were first adsorbed to immobilized recombinant human MET ECD, washed, and then eluted using trypsin. After two cycles of selection with human MET ECD, two other cycles were performed in the same fashion using mouse MET ECD. In parallel, we also selected phages alternating a human MET ECD cycle with a mouse MET ECD cycle, for a total of four cycles. Phages selected by the two approaches were pooled together and then used to infect TG1 E. coli. Individual colonies were isolated and secretion of Fabs was induced using IPTG (Fermentas). The Fab-containing periplasmic fraction of bacteria was collected and tested for its ability to bind human and mouse MET ECD by Surface Plasmon Resonance (SPR). Human or mouse MET ECD was immobilized on a CM-5 chip using amine coupling in sodium acetate buffer (GE Healthcare). The Fab-containing periplasmic extracts were loaded into a BIACORE 3000 apparatus (GE Healthcare) with a flow rate of 30 μl/min. The Fab off-rates (koff) were measured over a two minute period. Binding of Fabs to human and mouse MET was further characterized by ELISA using MET ECD in solid phase and periplasmic crude extract in solution.
(§2) TABLE 7 Fabs binding to both human MET (hMET) and mouse MET (mMET). Fabs are grouped in families based on their VH CDR3 sequence. Binding of Fabs to human and mouse MET ECD was determined by Surface Plasmon Resonance (SPR) and by ELISA. SPR values represent the koff (s⁻¹). ELISA values represent the Optical Density (OD) at 450 nm (AU, arbitrary units). Both SPR and ELISA were performed using crude periplasmic extracts. Fab concentration in the extract was not determined. Values are the mean of three independent measurements.

mouse MET ECD [2] = target: T2, mouse MET ECD (mouse, UniProt P16056 25-931); assay: SPR, MET ECD on chip, crude periplasmic Fab
T2 construct: range 1-931; recombinant ECD made by the applicants; the stated range begins at residue 1; also called mMET; mMET ECD
Experimental: as §1, §2
Target sequence in this assay (P16056 25-931 limits assumed, form in doubt): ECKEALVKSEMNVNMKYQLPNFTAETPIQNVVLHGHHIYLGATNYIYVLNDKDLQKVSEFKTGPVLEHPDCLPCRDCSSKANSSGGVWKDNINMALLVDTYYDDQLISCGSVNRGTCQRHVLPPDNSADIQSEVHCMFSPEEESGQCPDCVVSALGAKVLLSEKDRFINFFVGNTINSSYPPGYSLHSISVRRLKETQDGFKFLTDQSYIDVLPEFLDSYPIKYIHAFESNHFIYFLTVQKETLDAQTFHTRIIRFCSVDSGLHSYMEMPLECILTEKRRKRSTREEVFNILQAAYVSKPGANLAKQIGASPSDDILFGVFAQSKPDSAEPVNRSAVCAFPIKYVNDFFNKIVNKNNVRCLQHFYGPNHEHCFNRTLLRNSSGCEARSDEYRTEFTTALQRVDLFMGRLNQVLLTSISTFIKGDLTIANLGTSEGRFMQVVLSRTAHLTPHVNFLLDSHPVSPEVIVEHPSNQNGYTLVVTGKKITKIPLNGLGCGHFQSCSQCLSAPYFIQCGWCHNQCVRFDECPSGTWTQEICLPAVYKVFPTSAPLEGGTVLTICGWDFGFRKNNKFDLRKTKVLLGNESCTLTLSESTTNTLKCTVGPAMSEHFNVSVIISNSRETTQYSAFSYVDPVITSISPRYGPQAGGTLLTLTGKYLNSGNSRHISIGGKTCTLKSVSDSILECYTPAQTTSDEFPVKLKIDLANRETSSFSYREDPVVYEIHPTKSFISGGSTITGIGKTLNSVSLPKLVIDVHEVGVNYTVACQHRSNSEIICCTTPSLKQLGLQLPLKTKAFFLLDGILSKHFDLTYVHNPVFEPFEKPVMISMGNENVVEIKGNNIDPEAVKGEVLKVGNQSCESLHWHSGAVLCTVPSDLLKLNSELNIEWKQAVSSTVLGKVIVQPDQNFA

human MET ECD [3] = target: T1, human MET ECD; assay: ELISA, MET ECD in solid phase, crude periplasmic Fab
Experimental: as §1, §2

mouse MET ECD [4] = target: T2, mouse MET ECD; assay: as above
Experimental: as §1, §2

T1 sequence (P08581 25-932 limits assumed, form in doubt): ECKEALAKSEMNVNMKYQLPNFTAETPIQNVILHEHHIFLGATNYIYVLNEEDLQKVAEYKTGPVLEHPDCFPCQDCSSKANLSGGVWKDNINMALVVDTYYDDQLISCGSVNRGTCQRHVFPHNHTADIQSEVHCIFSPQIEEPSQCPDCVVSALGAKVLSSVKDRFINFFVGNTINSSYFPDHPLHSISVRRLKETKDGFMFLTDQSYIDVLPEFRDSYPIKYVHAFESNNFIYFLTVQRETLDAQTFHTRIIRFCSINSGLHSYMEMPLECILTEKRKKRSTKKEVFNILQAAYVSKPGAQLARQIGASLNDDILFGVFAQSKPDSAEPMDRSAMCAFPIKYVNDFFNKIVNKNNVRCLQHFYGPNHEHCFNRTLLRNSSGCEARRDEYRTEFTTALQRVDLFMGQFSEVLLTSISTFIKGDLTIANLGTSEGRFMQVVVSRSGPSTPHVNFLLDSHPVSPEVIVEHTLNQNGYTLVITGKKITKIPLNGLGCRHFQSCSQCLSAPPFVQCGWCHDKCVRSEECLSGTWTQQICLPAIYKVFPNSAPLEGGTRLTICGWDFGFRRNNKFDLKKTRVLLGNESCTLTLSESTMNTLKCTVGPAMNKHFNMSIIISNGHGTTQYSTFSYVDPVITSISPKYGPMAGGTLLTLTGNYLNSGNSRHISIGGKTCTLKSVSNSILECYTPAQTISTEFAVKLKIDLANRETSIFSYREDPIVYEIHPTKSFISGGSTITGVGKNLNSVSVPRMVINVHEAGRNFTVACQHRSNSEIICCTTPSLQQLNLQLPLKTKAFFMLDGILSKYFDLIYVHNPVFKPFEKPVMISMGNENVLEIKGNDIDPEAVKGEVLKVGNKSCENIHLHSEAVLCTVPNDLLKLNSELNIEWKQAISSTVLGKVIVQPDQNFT

Row | koff (human MET ECD [1]) | koff (mouse MET ECD [2]) | OD450 (human MET ECD [3]) | OD450 (mouse MET ECD [4]) | Binder
1 | 0.00568 s⁻¹ | 0.00544 s⁻¹ | 3.7 AU | 3.7 AU | 76H10 Fab (Fab, V domains shown, llama Fab (VH-CH1 and lambda VL-CL) with MYC flag, crude periplasmic extract) VH: QLQLVESGGGLVQPGGSLRVSCTASGFTFNTYYMTWVRQAPGKGLEWVSDINSGGGTYYADSVKGRFTISRDNAKNTLYLQMNSLKPEDTALYYCVRVRIWPVGYDYWGQGTQVTVSS VL: QAVVTQEPSLSVSPGGTVTLTCGLSSGSVTTSNYPGWFQQTPGQAPRTLIYNTNNRHSGVPSRFSGSISGNKAALTITGAQPEDEADYYCSLYTGSYTTVFGGGTHLTVL
2 | 0.00432 s⁻¹ | 0.00407 s⁻¹ | 3.2 AU | 3.08 AU | 76G7 Fab (Fab, V domains shown, llama Fab (VH-CH1 and lambda VL-CL) with MYC flag, crude periplasmic extract) VH: QVQLVESGGNLVQPGGSLRLSCAASGFTFSNYYMSWVRQAPGKGLEWVSDIYSDGSTTWYSDSVKGRFTISRDNAKNTLSLQMNSLKSEDTAVYYCARVKIYPGGYDAWGQGTQVTVSS VL: QAGLTQPPSVSGSPGKTVTISCAGNSSDVGYGNYVSWYQQFPGMAPKLLIYLVNKRASGITDRFSGSKSGNTASLTISGLQSEDEADYYCASYTGSNNIVFGGGTHLTVL
3 | 0.00121 s⁻¹ | 0.00148 s⁻¹ | 0.561 AU | 0.543 AU | 71G2 Fab (Fab, V domains shown, llama Fab (VH-CH1 and lambda VL-CL) with MYC flag, crude periplasmic extract) VH: EVQLQESGGGLVQPGGSLRLSCAASGFTFSIYDMSWVRQAPGKGLEWVSTINSDGSSTSYVDSVKGRFTISRDNAKNTLYLQMNSLKPEDTAVYYCAKVYGSTWDVGPMGYGMDYWGKGTLVTVSS VL: SSALTQPSALSVSLGQTARITCQGGSLGSSYAHWYQQKPGQAPVLVIYGDDSRPSGIPERFSGSSSGGTATLTISGAQAEDEDDYYCQSTDSSGNTVFGGGTRLTVL
4 | 0.00294 s⁻¹ | 0.00267 s⁻¹ | 3.26 AU | 3.07 AU | 71D6 Fab (Fab, V domains shown, llama Fab (VH-CH1 and lambda VL-CL) with MYC flag, crude periplasmic extract) VH: ELQLVESGGGLVQPGGSLRLSCAASGFTFSSYGMSWVRQAPGKGLEWVSAINSYGGSTSYADSVKGRFTISRDNAKNTLYLQMNSLKPEDTAVYYCAKEVRADLSRYNDYESYDYWGQGTQVTVSS VL: QPVLNQPSALSVTLGQTAKITCQGGSLGARYAHWYQQKPGQAPVLVIYDDDSRPSGIPERFSGSSSGGTATLTISGAQAEDEGDYYCQSADSSGSVFGGGTHLTVL
5 | 0.00225 s⁻¹ | 0.00258 s⁻¹ | 1.65 AU | 1.64 AU | 71C3 Fab (Fab, V domains shown, llama Fab (VH-CH1 and lambda VL-CL) with MYC flag, crude periplasmic extract) VH: QLQLVESGGGLVQPGGSLRLSCAASGFTFSSHAMSWVRQAPGKGLEWVSAINSGGGSTSYADSVKGRFTISRDNAKNTLYLQMNSLKPEDTAVYYCAKELRFDLARYTDYEAWDYWGQGTQVTVSS VL: SYELTQPSALSVTLGQTAKITCQGGSLGSSYAHWYQQKPGQAPVLVIYDDDSRPSGIPERFSGSSSGGTATLTISGAQAEDEGDYYCQSADSSGNAAVFGGGTHLTVL
6 | 0.00217 s⁻¹ | 0.00238 s⁻¹ | 0.311 AU | 0.307 AU | 71D4 Fab (Fab, V domains shown, llama Fab (VH-CH1 and lambda VL-CL) with MYC flag, crude periplasmic extract) VH: ELQLVESGGGLVQPGGSLRLSCAASGFTFSGYGMSWVRQAPGKGLEWVSDINSGGGSTSYADSVKGRFTISRDNAKNTLYLQMNSLKPEDTAVYYCAKDMRLYLARYNDYEAWDYWGQGTQVTVSS VL: SSALTQPSALSVTLGQTAKITCQGGSLGSSYAHWYQQKPGQAPVLVIYDDDSRPSGIPERFSGSSSGGTATLTISGAQAEDEGDYYCQSADSSGNAAVFGGGTHLTVL
7 | 0.00492 s⁻¹ | 0.00474 s⁻¹ | 0.581 AU | 0.524 AU | 71A3 Fab (Fab, V domains shown, llama Fab (VH-CH1 and lambda VL-CL) with MYC flag, crude periplasmic extract) VH: EVQLVESGGGLVQPGGSLRLSCAASGFSFKDYDITWVRQAPGKGLEWVSTITSRSGSTSYVDSVKGRFTISGDNAKNTLYLQMNSLKPEDTAVYYCAKVYATTWDVGPLGYGMDYWGKGTLVTVSS VL: SYELTQPSALSVTLGQTAKITCQGGSLGSSYAHWYQQKPGQAPVLVIYDDDSRPSGIPERFSGSSSGGTATLTISGAQAEDEGDYYCQSADSSGNAAVFGGGTHLTVL
